Here are results for eleven molecules from patent publication US20130252307A1.

Where a chain is given by its changes, count along the chain named. Names may count otherwise.

Sequences and labels used below:
B1: wild type human Trx enzyme (protein)
chain: VKQIESKTAFQEALDAAGDKLVVVDFSATWCGPCKMIKPFFHSLSEKYSNVIFLEVDVDDCQDVASECEVKCMPTFQFFKKGQKVGEFSGANKEKLEATINELV
B2: C35S human thioredoxin mutant (hTrx^C35S) (protein)
chain: B1 chain with C34S
B3: last common ancestor of γ-proteobacteria (LGPCA) Trx (protein)
chain: MSIIHVTDDSFDQDVLKADKPVLVDFWAEWCGPCKMIAPILDEIAEEYEGKLKVAKVNIDENPETAAKYGIRGIPTLMLFKNGEVAATKVGALSKSQLKEFLDANL
B4: last bacterial common ancestor (LBCA) Trx (protein)
chain: MSVIEINDENFEEEVLKSDKPVLVDFWAPWCGPCRMIAPIIEELAEEYEGKVKFAKVNVDENPETAAKYGIMSIPTLLLFKNGEVVDKLVGARPKEALKERIEKHL
B5: last common ancestor of cyanobacterial and deinococcus/thermus groups (LPBCA) Trx (protein)
chain: MSVIEVTDENFEQEVLKSDKPVLVDFWAPWCGPCRMIAPIIEELAKEYEGKVKVVKVNVDENPNTAAQYGIRSIPTLLLFKNGQVVDRLVGAQPKEALKERIDKHL
B6: archaeal/eukaryotic common ancestor (AECA) Trx (protein)
chain: MSVIEINDENFDEVIKKSDKVVVVDFWAEWCGPCRMIAPIIEELAEEYAGKVVFGKVNVDENPEIAAKYGIMSIPTLLFFKNGKVVDQLVGARPKEALKERIKKYL
B7: last archaeal common ancestor (LACA) Trx (protein)
chain: B6 chain with I4V, E5Q, I6L, S18N, D19N, E46K, V57L, I65T, R93M
B8: last common ancestor of animals and fungi (LAFCA) Trx (protein)
chain: MVIQVTNKDEFESILSEADKLVVVDFTATWCGPCKMIAPKFEELSEEYPDNVVFLKVDVDEVEDVAAEYGISAMPTFQFFKNGKKVDELTGANQEKLKAMIKKHAA
B9: last eukaryotic common ancestor (LECA) Trx (protein)
chain: MVIQVTNKEEFEAILSEADKLVVVDFFATWCGPCKMIAPFFEELSEEYPDKVVFIKVDVDEVPDVAAKYGITSMPTFKFFKNGKKVDELVGANQEKLKQMILKHAP

One data set deals with (I27G32C-A75C)8 polypeptide (UniProt Q8WZ42).
Experiment: not given
Consider Trx from Sulfolobus tokodaii, for which the “rate of disulfide reduction at pH 5” value is “does not show detectable activity at pH 5” and the “rate of disulfide reduction at pH 7, 50 pN” value was “active at pH 7 (0.12×10^5 M^-1 s^-1 at 50 pN)”.

Trx from Acetobacter aceti: the “rate of disulfide reduction at pH 5, 100 pN” value is “active at pH 5 (0.6×10^5 M^-1 s^-1 at 100 pN)”.

Another data set addresses (I27G32C-A75C)8 polypeptide, Q8WZ42.
Experiment: not given
For B1, the “rate of reduction at pH 5, fold lower than LBCA” value is “modern E. coli and human thioredoxin show ˜20 fold lower rates at this pH”; the “reoxidation of substrate disulfide bonds during refolding (step sizes in the probe pulse)” value was “none of the refolded domains formed a disulfide bond, indicating that the wild type form of thioredoxin does not catalyze reoxidation”.

In the case of B2, the “reoxidation of substrate disulfide bonds during refolding (step sizes in the probe pulse)” value was “the step sizes during the probe pulse are now entirely composed of 11 and 14 nm steps, indicating the full reoxidation of all the disulfide bonds”.

Turning to B3, the “staircases of single reduction events (AFM force-clamp)” value (shortened to “staircases of single reduction events”) is on record as “All the ancestral enzymes resurrected using the methods described herein were able to trigger staircases of reduction events”, the Δx02 (Å) was determined as 0.17 Å, the Δx12 (Å) was -0.83 Å and the β0 (s-^1) was 34 s⁻¹. The γ0 was 0.012 µM⁻¹ s⁻¹ and the λ0 was 0.35 s⁻¹.

On to B4, for which the “rate of catalysis at pH 5” value is “showed a high rate of catalysis at pH 5, where extant enzymes are largely inactive”; the “reduction rates at pH 5” value was “the reduction rates observed at pH 5 are strikingly similar to those measured at pH 7.2”; the “staircases of single reduction events” value is reported as “All the ancestral enzymes resurrected using the methods described herein were able to trigger staircases of reduction events”; the Δx02 (Å) was 0.19 Å. The same molecule displayed a Δx12 (Å) of -0.74 Å, a β0 (s-^1) of 30 s⁻¹, a γ0 of 0.004 µM⁻¹ s⁻¹ and a λ0 of 0.09 s⁻¹.

As for B5, the “staircases of single reduction events” value is “All the ancestral enzymes resurrected using the methods described herein were able to trigger staircases of reduction events”, the Δx02 (Å) is 0.17 Å, the Δx12 (Å) is -0.71 Å and the β0 (s-^1) amounted to 30 s⁻¹. Further, the γ0 was determined as 0.017 µM⁻¹ s⁻¹ and the λ0 is 0.19 s⁻¹.

For the molecule B6, the “rate constant of disulfide bond reduction extrapolated to zero force (pH 7.2)” value is reported as 30×10^5 M^-1 s^-1 for AECA Trx, the “reduction rate constant at pH 5 extrapolated to zero force” value is 19×10^5 M^-1 s^-1, the “staircases of single reduction events” value is “All the ancestral enzymes resurrected using the methods described herein were able to trigger staircases of reduction events” and the Δx02 (Å) came out at 0.19 Å. The molecule also showed a Δx12 (Å) of -0.84 Å, a β0 (s-^1) of 25 s⁻¹, a γ0 of 0.019 µM⁻¹ s⁻¹ and a λ0 of 0.21 s⁻¹.

Regarding B7, the “rate constant of disulfide bond reduction extrapolated to zero force (pH 7.2)” value is 29×10^5 M^-1 s^-1 for LACA Trx, the “reduction rate constant at pH 5 extrapolated to zero force” value is reported as 6.2×10^5 M^-1 s^-1, the “staircases of single reduction events” value is reported as “All the ancestral enzymes resurrected using the methods described herein were able to trigger staircases of reduction events” and the Δx12 (Å) was -0.76 Å. The molecule further gave a β0 (s-^1) of 43 s⁻¹ and a λ0 of 0.38 s⁻¹.

In the case of B8, the “staircases of single reduction events” value was “All the ancestral enzymes resurrected using the methods described herein were able to trigger staircases of reduction events”, the Δx12 (Å) is -0.74 Å, the β0 (s-^1) amounted to 37 s⁻¹ and the λ0 came to 0.06 s⁻¹.

As to B9, the “staircases of single reduction events” value is reported as “All the ancestral enzymes resurrected using the methods described herein were able to trigger staircases of reduction events”, the Δx12 (Å) is -0.8 Å, the β0 (s-^1) came to 38 s⁻¹ and the λ0 is 0.18 s⁻¹.

The next data set deals with (I27G32C-A75C)8 polypeptide (UniProt Q8WZ42). Kind of data set: given as k10 (k10=δ0); three-state kinetic model fitted to force-dependent disulfide reduction rates, single-molecule AFM force-clamp, pH 7.2; not a direct binding assay.
With B3, the off-rate constant (koff) – broadly, a measure of how fast the partners let go of each other – stood at 3.8 s⁻¹.

For the molecule B4, the koff came out at 5.8 s⁻¹.

For the molecule B5, the koff was determined as 4.9 s⁻¹.

The molecule B8 yielded a koff of 4.6 s⁻¹. The koff values of the last two molecules are within 1.5-fold of each other.

For the molecule B9, the koff stood at 4.2 s⁻¹.

A further data set has the same target. Kind of data set: given as α0 (k01=α0[Trx]); three-state kinetic model fitted to force-dependent disulfide reduction rates, single-molecule AFM force-clamp, pH 7.2; not a direct binding assay.
In the case of B3, the kon (usually a measure of how fast the partners come together) was 480000 M⁻¹ s⁻¹.

B4 yielded a kon of 470000 M⁻¹ s⁻¹.

B5 yielded a kon of 470000 M⁻¹ s⁻¹.

Turning to B8, the kon turned out to be 810000 M⁻¹ s⁻¹.

On to B9, for which the kon stood at 760000 M⁻¹ s⁻¹.
